Data on one molecule can be found in patent US10801046B2, “Methods and materials for biosynthesizing multifunctional, multivariate molecules via carbon chain modification” (INVISTA NORTH AMERICA S.A.R.L., priority 2016, dated 2020).

What all share (assay type): biochemical
Assay [1] in a line: Carboxylate reductase activity, 7-hydroxyheptanoate to 7-hydroxyheptanal, NADPH consumption at 340 nm. Particulars: enhanced by gene product of sfp, 20 min, against empty vector control, FIG. 44.
Assay [2] is described as follows: Carboxylate reductase activity, heptanedioate to 7-oxoheptanoate, NADPH consumption at 340 nm. The conditions noted are these: enhanced by gene product of sfp, 2 mM substrate, 20 min, against empty vector control, FIG. 43. The method, then: A sequence encoding a HIS-tag was added to the genes from Segniliparus rugosus and Segniliparus rotundus that encode the carboxylate reductases of SEQ ID NOs: 31 (GenBank Accession No. EFV11917.1) and 38 (GenBank Accession No. ADG98140.1), respectively, such that N-terminal HIS tagged carboxylate reductases could be produced. Each of the modified genes was cloned into a pET Duet expression vector along with a sfp gene encoding a HIS-tagged phosphopantetheine transferase from Bacillus subtilis, both under the T7 promoter. Each expression vector was transformed into a BL21[DE3] E. coli host and the resulting recombinant E. coli strains were cultivated at 37° C. in a 250 mL shake flask culture containing 50 mL LB media and antibiotic selection pressure, with shaking at 230 rpm. Each culture was induced overnight at 37° C. using an auto-induction media.
The pellet from each induced shake flask culture was harvested via centrifugation. Each pellet was resuspended and lysed via sonication, and the cell debris was separated from the supernatant via centrifugation. […]
Enzyme activity assays (i.e., from heptanedioate to 7-oxoheptanoate) were performed in triplicate in a buffer composed of a final concentration of 50 mM HEPES buffer (pH=7.5), 2 mM heptanedioate, 10 mM MgCl2, 1 mM ATP, and 1 mM NADPH. […] The consumption of NADPH was monitored by absorbance at 340 nm.

Assay [3] can be described thus: Carboxylate reductase activity, 7-oxoheptanoate to heptanedial, NADPH consumption at 340 nm. Particulars: enhanced by gene product of sfp, 2 mM substrate, 20 min, against empty vector control, FIG. 46. The method, then: The N-terminal His-tagged carboxylate reductase of SEQ ID NO: 38 (GenBank Accession No. ADG98140.1) (see Example 4) was assayed using 7-oxoheptanoate as substrate. The enzyme activity assay was performed in triplicate in a buffer composed of a final concentration of 50 mM HEPES buffer (pH=7.5), 2 mM 7-oxoheptanoate, 10 mM MgCl2, 1 mM ATP and 1 mM NADPH. The enzyme activity assay reaction was initiated by adding purified carboxylate reductase and phosphopantetheine transferase or the empty vector control to the assay buffer containing the 7-oxoheptanoate and then incubated at room temperature for 20 min. The consumption of NADPH was monitored by absorbance at 340 nm.

Assay [4] can be described thus: Carboxylate reductase activity, N7-acetyl-7-aminoheptanoate to N7-acetyl-7-aminoheptanal, NADPH consumption at 340 nm. The conditions noted are these: enhanced by gene product of sfp, 2 mM substrate, 20 min, against empty vector control, FIG. 45. The method, then: The activity of each of the N-terminal His-tagged carboxylate reductases of SEQ ID NOs: 29 (GenBank Accession No. ABK71854.1), 37 (Genbank Accession No. EIV11143.1), and 38 (GenBank Accession No. ADG98140.1) (see Examples 4) for converting N7-acetyl-7-aminoheptanoate to N7-acetyl-7-aminoheptanal was assayed in triplicate in a buffer composed of a final concentration of 50 mM HEPES buffer (pH=7.5), 2 mM N7-acetyl-7-aminoheptanoate, 10 mM MgCl2, 1 mM ATP, and 1 mM NADPH. The assays were initiated by adding purified carboxylate reductase and phosphopantetheine transferase or the empty vector control to the assay buffer containing the N7-acetyl-7-aminoheptanoate then incubated at room temperature for 20 min. The consumption of NADPH was monitored by absorbance at 340 nm.

B1: SEQ ID NO: 38: Segniliparus rotundus carboxylate reductase (protein, listed as Segniliparus rotundus)
chain: MTQSHTQGPQASAAHSRLARRAAELLATDPQAAATLPDPEVVRQATRPGLRLAERVDAILSGYADRPALGQRSFQTVKDPITGRSSVELLPTFDTITYRELRERATAIASDLAHHPQAPAKPGDFLASIGFISVDYVAIDIAGVFAGLTAVPLQTGATLATLTAITAETAPTLFAASIEHLPTAVDAVLATPSVRRLLVFDYRAGSDEDREAVEAAKRKIADAGSSVLVDVLDEVIARGKSAPKAPLPPATDAGDDSLSLLIYTSGSTGTPKGAMYPERNVAHFWGGVWAAAFDEDAAPPVPAINITFLPLSHVASRLSLMPTLARGGLMHFVAKSDLSTLFEDLKLARPTNLFLVPRVVEMLYQHYQSELDRRGVQDGTREAEAVKDDLRTGLLGGRILTAGFGSAPLSAELAGFIESLLQIHLVDGYGSTEAGPVWRDGYLVKPPVTDYKLIDVPELGYFSTDSPHPRGELAIKTQTILPGYYKRPETTAEVFDEDGFYLTGDVVAQIGPEQFAYVDRRKNVLKLSQGEFVTLAKLEAAYSSSPLVRQLFVYGSSERSYLLAVIVPTPDALKKFGVGEAAKAALGESLQKIARDEGLQSYEVPRDFIIETDPFTVENGLLSDARKSLRPKLKEHYGERLEAMYKELADGQANELRDIRRGVQQRPTLETVRRAAAAMLGASAAEIKPDAHFTDLGGDSLSALTFSNFLHDLFEVDVPVGVIVSAANTLGSVAEHIDAQLAGGRARPTFATVHGKGSTTIKASDLTLDKFIDEQTLEAAKHLPKPADPPRTVLLTGANGWLGRFLALEWLERLAPAGGKLITIVRGKDAAQAKARLDAAYESGDPKLAGHYQDLAATTLEVLAGDFSEPRLGLDEATWNRLADEVDFISHPGALVNHVLPYNQLFGPNVAGVAEIIKLAITTRIKPVTYLSTVAVAAGVEPSALDEDGDIRTVSAERSVDEGYANGYGNSKWGGEVLLREAHDRTGLPVRVFRSDMILAHQKYTGQVNATDQFTRLVQSLLATGLAPKSFYELDAQGNRQRAHYDGIPVDFTAESITTLGGDGLEGYRSYNVFNPHRDGVGLDEFVDWLIEAGHPITRIDDYDQWLSRFETSLRGLPESKRQASVLPLLHAFARPGPAVDGSPFRNTVFRTDVQKAKIGAEHDIPHLGKALVLKYADDIKQLGLL
modifications: Segniliparus rotundus (strain ATCC BAA-972 / CDC 1076 / CIP 108378 / DSM 44985 / JCM 13578)
notes: Segniliparus rotundus carboxylate reductase
On to B1, for which the “acceptance of 7-hydroxyheptanoate as substrate, forming 7-hydroxyheptanal” value in assay [1] is reported as “accepted 7-hydroxyheptanoate as substrate”. For the same molecule, the “acceptance of heptanedioate as substrate, forming 7-oxoheptanoate” value in assay [2] is “accepted heptanedioate as substrate”. For the same molecule, the “acceptance of 7-oxoheptanoate as substrate, forming heptanedial” value in assay [3] was “accepted 7-oxoheptanoate as substrate”. Besides, the “acceptance of N7-acetyl-7-aminoheptanoate as substrate, forming N7-acetyl-7-aminoheptanal” value in assay [4] was “accepted N7-acetyl-7-aminoheptanoate as substrate”.
